{
  "source": "the nanobody polyreactivity screen of Harvey et al. (2022)",
  "data": [
    {"test": "yeast display, Sf9 membrane polyspecificity reagent, FACS + sequencing; frameworks hold sequencing errors", "method_in_brief": "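A nanobody's polyreactivity label depends on the gate it was sorted from. Yeast display cells were stained with 10% biotinylated, detergent-solubilized Sf9 membrane reagent for 1 hour at 4 °C, enriched on streptavidin microbeads and sorted by FACS. The low and high (top ~1%) gates were set on anti-HA fluorescence for expression and streptavidin fluorescence for reagent binding.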", "values": [
      {"sequence": "QVQLVESGGGLVQAGGSLRLSCAASGSTFSYYAMGWYRKAPGKERELVAAITIGGRTNYADSVKGRFTISRDNAKNTVYFQMNSLKPEDTAVYYCAASRVRSLRSYVWDLLLMDSWGQGTQVTVSS", "polyreactivity (PSR sort gate)": "high polyreactivity"},
      {"sequence": "QVQLVESGGGLVQAGGSLRLSCAASGRTFVGYAMGWYRQAPGKERELVAAISTSGGRTYYADSVKGRFTISRDNEKYTVYLQMNSLKPEDTAVYYCAAGFRASIGYVTEYYWGQGTQVTVTS", "polyreactivity (PSR sort gate)": "high polyreactivity"},
      {"sequence": "QVQLVESGGGLVQAGGRLRLSCADSGRIFLYYAKGWYRQAPGKEPELVAAISGGGGRTYYADSVKGRFTISRDNAKNTVYLQMNSLKPEDTAVYYWAAGVYTGQHEFDYWGQGTQVTVSS", "polyreactivity (PSR sort gate)": "low polyreactivity"},
      {"sequence": "QVQLVESGGGLVQAGGSLRLSCAASGLIFYYYVMGWYRQAPGKERELVARISTSGGSTYYADSVKGRFTISRDNAKNTVYLQMNSLKPEDTAVYYCAADHYGGRDYWGQGTQVTVSS", "polyreactivity (PSR sort gate)": "low polyreactivity"},
      {"sequence": "QVQLVESGGRLVQAGGSLRLSCAASGRISPYAMGWYRQAPGKERELVAAISSRGGRTYYADSVKGRWTISRDNAKNTVYLEMNSQKPEDTAVYYCAVYPRSTLRTFQRDYWGQGTQVTVSS", "polyreactivity (PSR sort gate)": "high polyreactivity"},
      {"sequence": "QVQLVESGGGLVQAGGSLRLSCAASGFIFDVYAMGWYRQAPGKERELVAAITGSGSITYYADSVKGRFTISRDNAKNTVYLQMNSLKPEDTAVYYCAALGPTQDRDYWGQGTQVTVSS", "polyreactivity (PSR sort gate)": "high polyreactivity"},
      {"sequence": "QVQLEESGGGLVQAGGSLRLSCAASGITLGYYAMGWYRPAPGKERELVAAITWSGTSTYYADSVKGRFTISRDNAKNTVYLQMNSLKPEDTADYYCAAGFISQYQERGYWGQGTQVTVSS", "polyreactivity (PSR sort gate)": "low polyreactivity"},
      {"sequence": "QVQLVESGVGLVQAGGSLRLRCAASGSIFRRYAMGWYRQAPGKERELVARITSSSGTTTYADSVKGRFTISRYNSKNNVYLQMNSLKPEDTAVYYCAAAWWHAYYGKNYYWGQGTQVTVSS", "polyreactivity (PSR sort gate)": "high polyreactivity"},
      {"sequence": "QVQLVESGGGLVQAGGSLRLSCAASGSIFHYNSMGWDRQAPGKEWGLVASMSSGGRTYYADSVKGRFTISRDNPKNTVYLQMNSLKPDDTAVYYCAAEYYQTTYVWWTYDYYGGQGTQVTVSS", "polyreactivity (PSR sort gate)": "low polyreactivity"},
      {"sequence": "QVQLVESGGGLVQAGGSLRLSCAASGRTFGWYTMGWYRQAPGKEREFVAAISSSDTSTYYADSVKGRFTISRDNAKNTVYLQMNSLKPEDTAVYYCAADPPSWLWFVGYSYDYWGQGTQVTVTS", "polyreactivity (PSR sort gate)": "low polyreactivity"},
      {"sequence": "QVQLVESGGGLVQAGGSLRLSSAASGRIFFHNAMGWCRQAPGKDRELVAAIRSSTGSTYYADSVKGRFTISRDNAKNTVYLQMNSLKPEDNAVYYCAARSYDKYSRRVWGLGYWGQGTQVTVSS", "polyreactivity (PSR sort gate)": "high polyreactivity"},
      {"sequence": "QDQLVESGGGFVQAGGSRRLSCAASGRTLAYNAMGWYRPAPGKEWEFVAAITYSGGSTYYADSVKGRFTISRDNAKNTVYLQMYSLKPEDTAVYYCNAKRKRGYGSKFDYWGQGTQVTVSS", "polyreactivity (PSR sort gate)": "high polyreactivity"},
      {"sequence": "QVQLVESGGGLVQAGGSLRLSCAASGFTFDVYAKGLYRQAPGKERELVAAISIGANTYYADSVKGRFTISRDNAKSTVYLQMNSLKPEDTAVYYCAKRAYAPQYGYWGQGTQVTVSS", "polyreactivity (PSR sort gate)": "low polyreactivity"},
      {"sequence": "QVQLVESGGGLVQAGGSLRLSCAASGSIFAVYAMGWYRQAPGKERELVAASSTDYADSVKGRFTISRDYAKNTVYLQMNSLKPEDTAVYYCANVGFGIPGGFYYWGQGTKVTVSS", "polyreactivity (PSR sort gate)": "low polyreactivity"},
      {"sequence": "QVQLVESGGGLVQAGGSLRLSCAASGFIFPWYTMGWYRQAPGKERELVAVINQSGGSTYYADSVKGRFTISRDNAKNPVYLQMNSLKPEDTAVDYCAAKSYYSWGQGTQVTVSS", "polyreactivity (PSR sort gate)": "high polyreactivity"},
      {"sequence": "QVQLVESGGRLVQAGGSLLLSCAASGRIFDKYAMGWYRQAPGKERELVAAITYIDSGTYYADSVKGRFTISRDNAKNTVYLQMNSLKPEDTAVYYCAARYPSDYDYWGQDTQVTVSS", "polyreactivity (PSR sort gate)": "low polyreactivity"},
      {"sequence": "QVQLVESVGGLVQAGGSLRLSCASSGNIFGAYAMGWYRQAPGKERELVAAIDSGSTNYADSVKGRFTISRDNAKNTVSLQMNSLKPEDTAVYYCNTKDQDVKVHHTSNTDDYWGQGTQVTVSS", "polyreactivity (PSR sort gate)": "low polyreactivity"},
      {"sequence": "QVQLVESGGGLVQAGGSLRLSCAASGSTSGKNAMGWYRQAPGKERELVAVITYSGSRTYYADSVKGRFTISRDNAKNTVYLQMNSLIPEDTAVYYCAAVGGGVSFRGNYWGQGTQVTVSS", "polyreactivity (PSR sort gate)": "high polyreactivity"},
      {"sequence": "QVQLVESGGGLVQAGGSLRLSCAASGSIFKQNTKGWYRQAPGKERELVAAISSGGSTYYADSVKGRFTISRDNAKNTVYLQMNSLKPEDTAVYYCAKYYDWDYYLPLEGDYWGQGTQVTVSS", "polyreactivity (PSR sort gate)": "low polyreactivity"},
      {"sequence": "QVQIVESAGGLVQAGGSLSLSCAASGITYVFYALGWYRQEPGKERELVSDMSWSGGITYYADSVMGRFTISRDNAKNTVYLQMNSLKPEDPAVYYCAATKRQTKYYGGTTDSIMYYWGQGTQVTVSS", "polyreactivity (PSR sort gate)": "low polyreactivity"},
      {"sequence": "QVQLVESGGGLVQAGRSLRLSCAASGITFDDYDMGCYRQAPGKEREFVAAISFSGSSTYYADSVKGRFTISRDNAKNTVYLLMNSLKPEDTAVYYCNADYVYSGCLYYGKDYWFDYWGHGTQVTVSS", "polyreactivity (PSR sort gate)": "low polyreactivity"},
      {"sequence": "QVQLVESGGGLVQAGGSLRLSCAASGFTFVINDMGWYRQAPGKERELVADITSGGDKYYADSVKGRFTISRDNAKNTVYLQMISLKPEDTAVYYCARDNERDYYTYPYDYWGQGTQVTVSS", "polyreactivity (PSR sort gate)": "low polyreactivity"},
      {"sequence": "QVQLVESGGGLVQAGGILRLSCAASGFTFWYYVMGWYRQAPGKERELVAAITSSGDSTYYADSVKGRFTISRDNAKNTVYLQMNSLKPEDTAVYYCAAQRYPFERVYWGQGTQVTVSS", "polyreactivity (PSR sort gate)": "high polyreactivity"},
      {"sequence": "QVQLVESGAGLVQAGGSLRLSCAASGSSFYFNAMGLYRQAPGKERELVAAIDWSGGSTYYADSVKGRFTISRDNAKNTVYLQMNSLKPEDTAVYYCAAPYHYYGNTVGYADYDYWGQVTQVTVSS", "polyreactivity (PSR sort gate)": "low polyreactivity"},
      {"sequence": "QVQLQESGGGLVQAGGSLRLTCAASGSIFDGFNMGWYRQAPGKDREFVDAISYGASTYYADSVKGRFTVSRDNAINSVYLQMNSLKPEDTALYYWAVYDELYHVLVYWGRGTQVTVSS", "polyreactivity (PSR sort gate)": "low polyreactivity"},
      {"sequence": "QVQLVESGGGLVQAGGSLRLSCAASGFTFVQYAMGWYRPAPGKERELVARISSSGGSTYYADSVKGRFTISRDNAKNTVYLQMTSLKPEDTAVYYCAARRSHYYYVARFDYWGQGTQVTVSS", "polyreactivity (PSR sort gate)": "high polyreactivity"},
      {"sequence": "QVQLVESGGGLVQAGGSLRLSCAASGRTLSAYAMGWYRQAPGKERELVAALRWRGGSTVYAASVKGRFTISRDNAKNPVYLQMHSLKPADTAVYYCNALPGNRRTVYYWGQGTQVTVSS", "polyreactivity (PSR sort gate)": "high polyreactivity"},
      {"sequence": "QVQLVESGGGLVQAGGSLRLSCAASGIIFDSYTMGWYRQAPGKERELVAAISVSGGSTYYADSVKGRFTISRDNAKNTVYLQMNSLKPEDTAVYYCATVPSLPDYDSWGQGTQVTVSS", "polyreactivity (PSR sort gate)": "low polyreactivity"},
      {"sequence": "QVQLQESAGGLVQAGGSLRLRCSASGYISCDASKGWYRQAPGKERELAASITKGSSTNYADSVKGRFTIRDNAKNSVNLQMNSLKPEDTAVCYCAVTYPYWGDYTYWGQGTQVTVSS", "polyreactivity (PSR sort gate)": "low polyreactivity"},
      {"sequence": "QVQHVESGGGLVQAGGSLRLSCAASGSTFTWYTMGWYRQAPGKERELVATIRKRGGSTYYADSVKGRFTISRDNAKNTVYLQMNSLKPEDTAVYYCAAVYKVHSGLYEYWGQGTQVTVSS", "polyreactivity (PSR sort gate)": "high polyreactivity"},
      {"sequence": "QVQLVESGGGLVQPGGSLRLSCAASGSTFDWYAMAWYRQAPGKQRELVAAISSDDSTYYADSVKGRFTISRDNAKNTVYLQMNSLKPEETAVYYCAFDVYSDYGDYGFWGQGTQVTVSS", "polyreactivity (PSR sort gate)": "low polyreactivity"},
      {"sequence": "QVQLQESGGGLVQGGGSLRLSCAASGSIYRSWYMGWYRQAPGKERELVASITEGATTNYAYSVKAALPLAAITRNTVYLQMDSMKPEDTAVYYRAASFGSTYDLVYWGQGTQVTVSS", "polyreactivity (PSR sort gate)": "high polyreactivity"},
      {"sequence": "QVQLVESGGGLVQAGGSLRLSCAASGRIFGPYAMGWYRQAPGKERELVAAIRASSSSTYYADSVKGRFTISRDNAKNTVYVQMNSLKPEDTAVYYCAADWYYGYAWKYGYWGQGTQVTVSS", "polyreactivity (PSR sort gate)": "low polyreactivity"},
      {"sequence": "QVQLVESGGGLVQAGGSHRLSCAASGFTSAVNTMGWYRQAPGKEREFVASISRNGGSTYYADSVKGRFTITRDNAKNTVYLQINSLKPEDTAVYYCNTRVPNYAFRRSRYDYWGQGTQVTVSS", "polyreactivity (PSR sort gate)": "high polyreactivity"},
      {"sequence": "QVQLVESGGGLLQAGGSLRLSCAASGRIKDNGMGWYIKAPGKERELVAAITLSAGRTYYADSVKGRFTISRDNAKNTVYLQMNSLKPEDTAVYYCAAQAERYGYEYWGQGTQVTVSS", "polyreactivity (PSR sort gate)": "low polyreactivity"},
      {"sequence": "QVQLVESWGGLVQAGGSLRLSCAASGSTISDNAMGWYRQAPGKERELVATIDDDGSTYYADSVKGRFTISRDNAKKTVYLQMNSLKPEDTAVYYCAAEWYGGYPFGYWGQGTQVTVSS", "polyreactivity (PSR sort gate)": "low polyreactivity"},
      {"sequence": "QVQLVESGGGLGQAGGSLRLSCAASGRIFYRNAMGWYRQAPGKERELVAAISSSGSTNYADSVKGRFTISRDNAKNTVYLQMNSLKPEDTAVDYCNDVVRWGYGYDYWGQGTQVTVSS", "polyreactivity (PSR sort gate)": "high polyreactivity"},
      {"sequence": "PVQLVESGGGLVQAGGSLRLSCAASGFTFSYNDMGWYRQAPGKERELVAAITSTGGTYYADSVKGRFTISRDNAKNTVYLQMNSLKPEDTAVYYCAADRIGGPGSYLYDYWGQGTQVTVSS", "polyreactivity (PSR sort gate)": "low polyreactivity"},
      {"sequence": "QVQLVESGGGLVQAGGSLRLSCAASGFIFYRYVMGWYRQAPGKERELVAAITWSGGSTYYADSVKGRFTISRDNAKNTVYLQMNSLKPEDTAVYYCAAEWWLPSFGMDYWGQGTQVTVSS", "polyreactivity (PSR sort gate)": "low polyreactivity"},
      {"sequence": "QVQLVESGGGLVQAGGSLRLSCAASGFIFWQYTMGWYRQAPGKERELVAAITWRGTRTYADSVKGRFTISRDNAKNTVYLQMNSLKPEDTAVYYCAAREYYHGPDGGYYGYDYWGQGTQVTVSS", "polyreactivity (PSR sort gate)": "high polyreactivity"},
      {"sequence": "QVQLVESGGGLVQAGGSLRLSCAASGFIFVWNAMGWYRQAPGKERELVANIRDGGITYADSVKGRFTITRDNAKNTVYLQMNSLKPEDTAVYYCARTNFYRSYEPGGRFYNYDYWGQGTQVTVSS", "polyreactivity (PSR sort gate)": "low polyreactivity"}
    ]}
  ]
}
